Measurements from US20240059769A1 (BIOLOJIC DESIGN, published 2024).
Blank lines part the entries; values can stand above or below the binder they belong to.

Experiments:
recombinant human IL-13 [1] = molecular target: T1, recombinant human IL-13 (human, UniProt P35225 35-146); experiment: SPR
T1 construct: also called rh-IL-13; hIL-13

human TSLP [2] = molecular target: T2, human TSLP (human, UniProt Q969D9 29-159); experiment: SPR
T2 construct: also called hTSLP; rhTSLP

[3] = molecular target: T3, recombinant cynomolgus monkey IL-13 (cynomolgus monkey, UniProt Q0PW92 21-132); experiment: SPR
T3 construct: bought; also called rc-IL-13; cIL-13
T3 sequence (Q0PW92 entry or part of it): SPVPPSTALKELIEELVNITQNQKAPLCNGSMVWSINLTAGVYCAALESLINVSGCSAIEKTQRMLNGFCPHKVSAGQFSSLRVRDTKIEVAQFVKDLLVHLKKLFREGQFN

[4] = molecular target: T4, cynomolgus monkey (cyno) TSLP (cynomolgus monkey, UniProt A0A7N9CAT7 29-159); experiment: SPR
T4 construct: also called cTSLP; cynomolgus TSLP
T4 sequence (A0A7N9CAT7 entry or part of it): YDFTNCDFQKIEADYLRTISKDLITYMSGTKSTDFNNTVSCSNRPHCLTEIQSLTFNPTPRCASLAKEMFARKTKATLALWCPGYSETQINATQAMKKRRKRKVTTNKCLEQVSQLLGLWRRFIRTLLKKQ

recombinant human IL-13 [5] = molecular target: T1, recombinant human IL-13; experiment: cell-based or functional assay
human TSLP [6] = molecular target: T2, human TSLP; experiment: cell-based or functional assay
hTSLP-His [7] = molecular target: T5, hTSLP-His (human, UniProt Q969D9 29-159, limits assumed); experiment: cell-based or functional assay
recombinant human IL-13 [8] = molecular target: T1, recombinant human IL-13; experiment: cell-based or functional assay; remark: listed apart in the source
hTSLP-His [9] = molecular target: T5, hTSLP-His; experiment: competition ELISA, 7 nM TSLP-His pre-incubated with antibody; competitor Tezepelumab coated
hTSLP-His [10] = molecular target: T5, hTSLP-His; experiment: competition ELISA: antibody titrated and pre-incubated with 7 nM TSLP-His, then on a plate coated with 33.001 (Tezepelumab), anti-His detection; row head on the sheet reads EC50, unit from the axis
human TSLP [11] = molecular target: T2, human TSLP; experiment: yeast surface display, affinity maturation library
[12] = molecular target: T6, recombinant human IL-13 (rh-IL-13)-Fc (human, UniProt P35225 35-146, limits assumed); experiment: yeast surface display scFv, flow cytometry, 10 nM rh-IL-13-Fc
T6 construct: bought; not shown: human Fc
T6 sequence (P35225 35-146 limits assumed): as the sequence (Q0PW92 entry or part of it) above, with S1G, K10R, V42M, N67S, R83H, V100L counted along it

[13] = molecular target: T7, recombinant human TSLP (hTSLP)-Fc (human, UniProt Q969D9 29-159, limits assumed); experiment: yeast surface display, flow cytometry, 10 nM hTSLP-Fc; MFI normalized to expression and to the positive control
T7 construct: not shown: Fc

hIL-13-His = hIL-13-His (human, UniProt P35225 35-146, limits assumed); experiment: cell-based or functional assay
hIL-13-His, sequence (P35225 35-146 limits assumed): as the sequence (Q0PW92 entry or part of it) above, with S1G, K10R, V42M, N67S, R83H, V100L counted along it

T1 sequence (P35225 35-146 limits assumed): as the sequence (Q0PW92 entry or part of it) above, with S1G, K10R, V42M, N67S, R83H, V100L counted along it

Kd (recombinant human IL-13 [1]): 0.0318 nM | koff (recombinant human IL-13 [1]): 0.000547 s⁻¹ | kon (recombinant human IL-13 [1]): 1.72e+07 M⁻¹ s⁻¹ | Kd (human TSLP [2]): 0.012 nM | koff (human TSLP [2]): 2.38e-05 s⁻¹ | kon (human TSLP [2]): 1.98e+06 M⁻¹ s⁻¹ | Kd [3]: 0.454 nM | koff [3]: 0.0156 s⁻¹ | kon [3]: 3.45e+07 M⁻¹ s⁻¹ | Kd [4]: 0.00279 nM | koff [4]: 7.59e-06 s⁻¹ | kon [4]: 2.72e+06 M⁻¹ s⁻¹ | IC50 CD23 (recombinant human IL-13 [5]): 0.0975 nM | IC50 TARC (human TSLP [6]): 4.17 nM | IC50 [pM], STAT5 phosphorylation inhibition in MUTZ5 cells (hTSLP-His [7]): 43.9 pM | HEK-IL-13 [nM] (IC50, STAT6 reporter) (recombinant human IL-13 [8]): 0.0691 nM | IC50 (hTSLP-His [9]): 3.94 nM | IC50 (hTSLP-His [10]): 3.39 nM
B1: BDG38.075 (antibody, V domains shown)
VH: QMQLVESGGGVVQPGRSLRLSCAASGFAFRTYGMHWVRQAPGKGLEWVAVIWYDGSATHYADSVKGRFTITRDNSKNTLNLQMNSLRAEDTAVYYCVRAPQWYLSAEAFDLWGQGTMVTVSS
VL: SYVLTQPPSVSVAPGETATITCGGNLIGAYLVHWYQQKPGQAPVLVIYDDVDRPARIPERFSGSNSGNTATLTISRVEAGDEADYYCQVWDHDTNTMVFGGGTKLTVL
notes: IgG1

binding result (human TSLP [11]): binds
B2: Ab clone 38.040 (yeast surface display) (scFv, V domains shown)
VH: QMQLVESGGGVVQPGRSLRLSCAASGFDFRTYGMHWVRQAPGKGLEWVAVIWYDGSITHYADSVKGRFTITRDNSKNTLNLQMNSLRAEDTAVYYCVRAPQWYLTAEAFDLWGQGTMVTVSS
VL: SYVLTQPPSVSVAPGQTARITCGGNLIGTKLVHWYQQKPGQAPVLVVYDDSDRPSRIPERFSGSNSGNTATLTISRVEAGDEADYYCQVWDHNEDEVVFGGGTKLTVL
notes: YSD clone; also called BDG38_040

binding result (human TSLP [11]): binds
B3: Ab clone 38.021 (yeast surface display) (scFv, V domains shown)
VH: QMQLVESGGGVVQPGRSLRLSCAASGFAFDTYGMHWVRQAPGKGLEWVAVIWYDGSNTVYADSVKGRFTITRDNSKNTLNLQMNSLRAEDTAVYYCARAPQWYLSAEAFDLWGQGTMVTVSS
VL: SYVLTQPPSVSVAPGQTARITCGGNLIGSKLVHWYQQKPGQAPVLVVYDDSDRPSRIPERFSGSNSGNTATLTISRVEAGDEADYYCQVWDHSSDHYVFGGGTKLTVL
notes: YSD clone; also called BDG38_021

binding result (human TSLP [11]): binds
B4: Ab clone 38.019 (yeast surface display) (scFv, V domains shown)
VH: QMQLVESGGGVVQPGRSLRLSCAASGFAFRTYGMHWVRQAPGKGLEWVAVIWYDGSNTHYADSVKGRFTITRDNSKNTLNLQMNSLRAEDTAVYYCVRAPQWYLSAEAFDLWGQGTMVTVSS
VL: SYVLTQPPSVSVAPGQTARITCGGNLIGSKLVHWYQQKPGQAPVLVVYDDSDRPSRIPERFSGSNSGNTATLTISRVEAGDEADYYCQVWDYSSNHVVFGGGTKLTVL
notes: YSD clone; also called BDG38_019

binding result (human TSLP [11]): binds
B5: Ab clone 38.018 (yeast surface display) (scFv, V domains shown)
VH: QMQLVESGGGVVQPGRSLRLSCAASGFAFRTYGMHWVRQAPGKGLEWVAVIWDDGSNTHYADSVKGRFTITRDNSKNTLNLQMNSLRAEDTAVYYCARAPQWYLSAEAFDLWGQGTMVTVSS
VL: SYVLTQPPSVSVAPGQTARITCGGNLIGSKLVHWYQQKPGQAPVLVVYDDSDRPSRIPERFSGSNSGNTATLTISRVEAGDEADYYCQVWDHSSDHVVFGGGTKLTVL
notes: YSD clone; also called BDG38_018

binding result (human TSLP [11]): binds
B6: Ab clone 38.026 (yeast surface display) (scFv, V domains shown)
VH: QMQLVESGGGVVQPGRSLRLSCAASGFAFRTYGMHWVRQAPGKGLEWVAVIWYDGSATHYADSVKGRFTITRDNSKNTLNLQMNSLRAEDTAVYYCVRAPQWYLSAEAFDLWGQGTMVTVSS
VL: SYVLTQPPSVSVAPGQTATITCGGNLIGSKLVHWYQQKPGQAPVLVVYDDSDRPSRIPERFSGSNIGNTATLTISRVEAGDEADYYCQVWDHSSDHVVFGGGTKLTVL
notes: YSD clone; also called BDG38_026

Kd (recombinant human IL-13 [1]): 0.0325 nM | koff (recombinant human IL-13 [1]): 0.000539 s⁻¹ | kon (recombinant human IL-13 [1]): 1.66e+07 M⁻¹ s⁻¹ | Kd (human TSLP [2]): 0.166 nM | koff (human TSLP [2]): 0.000144 s⁻¹ | kon (human TSLP [2]): 869000 M⁻¹ s⁻¹ | IC50 CD23 (recombinant human IL-13 [5]): 0.0124 nM | IC50 TARC (human TSLP [6]): 2.47 nM | IC50 [pM], STAT5 phosphorylation inhibition in MUTZ5 cells (hTSLP-His [7]): 304 pM | HEK-IL-13 [nM] (IC50, STAT6 reporter) (recombinant human IL-13 [8]): 0.0505 nM | IC50 (hTSLP-His [9]): 8.47 nM | IC50 (hTSLP-His [10]): 8.48 nM
B7: BDG38.077 (antibody, V domains shown)
VH: QMQLVESGGGVVQPGRSLTLSCAASGFAFRTYGMHWVRQAPGKGLEWVGVIWYDGSATHYADSVKGRFTITRDNSKNTLNLQMNSLRAEDTAVYYCVRAPQWYLTAEAFDLWGQGTMVTVSS
VL: SYVLTQPPSVSVAPGETATITCGGALIGSRLVHWYQQKPGQAPVLVIYDDSDRPSRIPERFSGSNIGNTATLTISDVEAGDEADYYCQVWDHSSNTYVFGGGTKLTVL
notes: IgG1

binding result (human TSLP [11]): binds
B8: Ab clone 38.014 (yeast surface display) (scFv, V domains shown)
VH: QMQLVESGGGVVQPGRSLRLSCAASGFAFRTYGMHWVRQAPGKGLEWVAVIWYDGSNTHYADSVKGRFTITRDNSKNTLNLQMNSLRAEDTAVYYCVRAPQWYLSAEAFDLWGQGTMVTVSS
VL: SYVLTQPPSVSVAPGQTARITCGGNLIGAKLVHWYQQKPGQAPVLVVYDDSDRPSRIPERFSGSNSGNTATLTISRVEAGDEADYYCQVWDHSSDHVVFGGGTKLTVL
notes: YSD clone; also called BDG38_014

relative affinity (normalized MFI, % of positive control) [12]: > 20% | binding result [13]: binds
B9: Clone C9 (yeast-displayed scFv) (scFv)
scFv: QMQLVESGGGVVQPGRSLRLSCAASGFTFRTYGMHWVRQAPGKGLEWVAVIWYDGSNKHYADSVKGRFTITRDNSKNTLNLQMNSLRAEDTAVYYCARSPQWEWVHEAFDLWGQGTMVTVSSGGGGSGGGGSGGGGSSYVLTQPPSVSVAPGQTARITCGGNLIGSKLVHWYQQKPGQAPVLVVYDDGDRPSWIPERFSGSNSGNTATLTISRVEAGDEADYYCQVWDSSSDGVVFGGGTKLTVL

relative affinity (normalized MFI, % of positive control) [12]: > 20% | binding result [13]: binds
B10: Clone C40 (yeast-displayed scFv) (scFv)
scFv: QMQLVESGGGVVQPGRSLRLSCAASGFTFRTYGMHWVRQAPGKGLEWVAVIWYDGSNKHYADSVKGRFTITRDNSKNTLNLQMNSLRAEDTAVYYCARSPQWEWVHEAFDLWGQGTMVTVSSGGGGSGGGGSGGGGSSYVLTQPPSVSVAPGQTARITCGGNNIGSKLVHWYQQKPGQAPVLVVYDDSDRPSRIPERFSGSNSGNTATLTISRVEAGDEADYYCQVWDTSSDGVVFGGGTKLTVL

relative affinity (normalized MFI, % of positive control) [12]: > 20% | binding result [13]: binds
B11: Clone C2 (yeast-displayed scFv) (scFv)
scFv: QMQLVESGGGVVQPGRSLRLSCAASGFTFRTYGMHWVRQAPGKGLEWVAVIWYDGSNKHYADSVKGRFTITRDNSKNTLNLQMNSLRAEDTAVYYCARAPQWELTAEAFDIWGQGTMVTVSSGGGGSGGGGSGGGGSSYVLTQPPSVSVAPGQTARITCGGNLIGSKLVHWYQQKPGQAPVLVVYDDSDRPSLIPERFSGSNSGNTATLTISRVEAGDEADYYCQVWDSSSDGVVFGGGTKLTVL

relative affinity (normalized MFI, % of positive control) [12]: > 20% | binding result [13]: binds
B12: Clone C6 (yeast-displayed scFv) (scFv)
scFv: QMQLVESGGGVVQPGRSLRLSCAASGFTFRTYGMHWVRQAPGKGLEWVAVIWYDGSNKHYADSVKGRFTITRDNSKNTLNLQMNSLRAEDTAVYYCARAPQWMLVAEAFDLWGQGTMVTVSSGGGGSGGGGSGGGGSSYVLTQPPSVSVAPGQTARITCGGNLIGSKLVHWYQQKPGQAPVLVVYDDSDRPSRIPERFSGSNSGNTATLTISRVEAGDEADYYCQVWDSSSDHVVFGGGTKLTVL

IC50, CD23 expression on monocytes (hPBMC, 0.7 nM IL-13) (hIL-13-His): 0.38 nM
B13: Lebrikizumab (antibody, V domains shown)
VH: QVTLRESGPALVKPTQTLTLTCTVSGFSLSAYSVNWIRQPPGKALEWLAMIWGDGKIVYNSALKSRLTISKDTSKNQVVLTMTNMDPVDTATYYCAGDGYYPYAMDNWGQGSLVTVSS
VL: DIVMTQSPDSLSVSLGERATINCRASKSVDSYGNSFMHWYQQKPGQPPKLLIYLASNLESGVPDRFSGSGSGTDFTLTISSLQAEDVAVYYCQQNNEDPRTFGGGTKVEIKR

IC50, CD23 expression on monocytes (hPBMC, 0.7 nM IL-13) (hIL-13-His): 0.91 nM
B14: Tralokinumab (antibody, V domains shown)
VH: QVQLVQSGAEVKKPGASVKVSCKASGYTFTNYGLSWVRQAPGQGLEWMGWISANNGDTNYGQEFQGRVTMTTDTSTSTAYMELRSLRSDDTAVYYCARDSSSSWARWFFDLWGRGTLVTVSS
VL: SYVLTQPPSVSVAPGKTARITCGGNIIGSKLVHWYQQKPGQAPVLVIYDDGDRPSGIPERFSGSNSGNTATLTISRVEAGDEADYYCQVWDTGSDPVVFGGGTKLTVL
